PMC4516285 (Biochemistry, 2015)

T1: wild type Escherichia coli CheY (E. coli, UniProt P0AE67 2-129)
T1 sequence: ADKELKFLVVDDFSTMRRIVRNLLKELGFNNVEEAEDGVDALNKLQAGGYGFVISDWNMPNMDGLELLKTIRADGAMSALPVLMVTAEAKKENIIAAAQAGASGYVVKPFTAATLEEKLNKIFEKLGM


Tests used:
[1] = biological target: FliM 1-16 (Escherichia coli) (UniProt P06974); details: cited from earlier work
[2] = biological target: T1, wild type Escherichia coli CheY; assay: other fluorescence titration

Kd [2] [µM] | Molecule | Kd [1] [µM]
 | CheY (from UniProt P0AE67) | 280
370 | MGDSILSQAEIDALLN [FliM_(1–16) peptide (amino terminal 16 residues of E. coli FliM)] | 
